Test results: patent US20140178935A1 (AVEO PHARMACEUTICALS, published 2014)

Tests used:
[1] = biological target: T1, recombinant human HGF (R&D Systems, Catalog No. 294-HGN-025) (human, UniProt P14210 32-728); assay: SPR, antibody captured by anti-mouse Ig, HGF injected, 25 C
T1 construct: Mature HGF is a disulfide-linked heterodimer of alpha and beta chain cut from one precursor; also called rhHGF (R&D Systems); rhHGF
Experimental: Rabbit anti-mouse immunoglobulins (BIAcore, Catalog No. BR-1005-14) were immobilized on carboxymethylated dextran CM5 sensor chips (BIAcore, Catalog No. BR-1006-68) by amine coupling (BIAcore, Catalog No. BR-1000-50) using a standard coupling protocol according to manufacturer's instructions. The analyses were performed at 25° C. using PBS (GIBCO, Catalog No. 14040-133) containing 0.05% surfactant P20 (BIAcore, Catalog No. BR-1000-54), 2 mg/mL BSA (EMD, Catalog No. 2930), and 10 mg/mL CM-Dextran Sodium salt (Fluka, Catalog No. 86524) as running buffer.
The antibodies were captured in an individual flow cell at a flow rate of 10 μL/min. Injection time was variable for each antibody to yield approximately 20 RU of antibody captured for each cycle. […] The dissociation phase was monitored for 15 or 90 minutes, depending on concentration. The surface then was regenerated with 10 mM Glycine-HCl, pH 1.7 (BIAcore, Catalog No. BR-1003-54) injected for 3 minutes at a flow rate of 60 μL/min before another cycle was initiated.
Kinetic parameters were determined using the kinetic function of the BIAevalutation software with reference subtraction.

[2] = biological target: hHGF-Fc G555E (recombinant hHGF protein containing a glycine to glutamate substitution at position 555) (human); assay: SPR, antibody immobilized, HGF protein injected, 25 C
Experimental: (§1) Each antibody was immobilized on a carboxymethylated dextran CM5 sensor chip (BIAcore, Catalog No. BR-1006-68) by amine coupling (BIAcore, Catalog No. BR-1000-50) using a standard coupling protocol according to manufacturer's instructions.
(§2) Analyses were performed at 25° C. using PBS (GIBCO, Catalog No. 14040-133) containing 0.05% surfactant P20 (BIAcore, Catalog No. R-1000-54), 2 mg/mL BSA (EMD, Catalog No. 2930) and 10 mg/mL CM-Dextran Sodium salt (Fluka, Catalog No. 86524) as running buffer. […] The resulting binding was determined as resonance units (RU) over baseline 30 seconds after the end of injection. […] Non-specific binding was monitored by comparing binding to a control surface where mouse IgG (Rockland, Catalog No. 010-0102) was immobilized using the same amine coupling procedure.

[3] = biological target: hHGF-Fc C561R (recombinant hHGF protein containing a cysteine to arginine substitution at position 561) (human); assay: as above
Experimental: as §1, §2

[4] = biological target: T1, recombinant human HGF (R&D Systems, …); assay: cell-based or functional assay
[5] = biological target: T1, recombinant human HGF (R&D Systems, …); assay: cell-based or functional assay; remark: listed apart in the source

T1 sequence (P14210 32-728 limits assumed): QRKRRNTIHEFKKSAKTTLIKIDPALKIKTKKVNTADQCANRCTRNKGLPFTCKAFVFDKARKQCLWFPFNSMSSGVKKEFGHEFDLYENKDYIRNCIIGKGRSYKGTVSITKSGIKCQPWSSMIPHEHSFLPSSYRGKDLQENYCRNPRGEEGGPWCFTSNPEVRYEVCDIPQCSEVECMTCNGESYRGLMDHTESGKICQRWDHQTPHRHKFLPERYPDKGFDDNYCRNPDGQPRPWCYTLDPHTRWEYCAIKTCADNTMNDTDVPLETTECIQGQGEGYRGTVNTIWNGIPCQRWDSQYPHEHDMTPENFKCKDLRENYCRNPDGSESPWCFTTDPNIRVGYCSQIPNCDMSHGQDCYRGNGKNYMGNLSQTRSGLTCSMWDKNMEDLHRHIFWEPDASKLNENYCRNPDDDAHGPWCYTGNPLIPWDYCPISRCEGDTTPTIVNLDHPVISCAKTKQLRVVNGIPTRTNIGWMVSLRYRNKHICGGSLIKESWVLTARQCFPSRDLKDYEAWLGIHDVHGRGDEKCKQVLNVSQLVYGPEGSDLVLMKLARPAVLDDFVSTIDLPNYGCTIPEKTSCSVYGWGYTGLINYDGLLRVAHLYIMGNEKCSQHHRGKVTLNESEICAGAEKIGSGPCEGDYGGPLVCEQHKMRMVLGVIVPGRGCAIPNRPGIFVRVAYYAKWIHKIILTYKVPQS
hHGF-Fc G555E (recombinant hHGF protein containing a glycine to glutamate substitution at position 555) (human), sequence (chain, as listed by the source G555E G555E limits assumed): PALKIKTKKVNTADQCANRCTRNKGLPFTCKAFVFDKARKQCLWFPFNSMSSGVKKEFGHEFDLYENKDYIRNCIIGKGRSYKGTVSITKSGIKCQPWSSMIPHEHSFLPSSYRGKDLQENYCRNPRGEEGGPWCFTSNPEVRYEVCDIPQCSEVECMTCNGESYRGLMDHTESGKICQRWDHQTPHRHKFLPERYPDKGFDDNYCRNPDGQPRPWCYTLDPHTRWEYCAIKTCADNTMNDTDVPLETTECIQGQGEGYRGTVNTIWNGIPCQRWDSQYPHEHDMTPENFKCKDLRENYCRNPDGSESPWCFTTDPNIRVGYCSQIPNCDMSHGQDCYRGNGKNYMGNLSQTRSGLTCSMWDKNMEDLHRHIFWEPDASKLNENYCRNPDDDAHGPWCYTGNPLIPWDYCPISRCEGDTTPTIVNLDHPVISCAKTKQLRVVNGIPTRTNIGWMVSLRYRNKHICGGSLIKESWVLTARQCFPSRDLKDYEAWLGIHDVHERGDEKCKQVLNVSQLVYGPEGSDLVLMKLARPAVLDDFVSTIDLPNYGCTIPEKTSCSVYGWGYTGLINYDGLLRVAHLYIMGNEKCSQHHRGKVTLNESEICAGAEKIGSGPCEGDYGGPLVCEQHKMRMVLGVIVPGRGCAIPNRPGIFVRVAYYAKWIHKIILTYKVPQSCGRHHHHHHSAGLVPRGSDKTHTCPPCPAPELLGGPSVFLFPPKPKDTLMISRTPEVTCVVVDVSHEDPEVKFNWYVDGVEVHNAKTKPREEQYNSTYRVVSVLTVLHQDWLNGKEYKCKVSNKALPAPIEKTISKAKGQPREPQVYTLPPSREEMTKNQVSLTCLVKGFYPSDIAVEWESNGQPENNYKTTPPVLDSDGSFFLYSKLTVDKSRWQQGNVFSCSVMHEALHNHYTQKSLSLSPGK
hHGF-Fc C561R (recombinant hHGF protein containing a cysteine to arginine substitution at position 561) (human), sequence (chain, as listed by the source C561R C561R limits assumed): as the sequence (chain, as listed by the source G555E G555E limits assumed) above, with E501G, C507R counted along it

B1: anti-hHGF monoclonal antibody 2B8 (antibody, mouse IgG1, kappa)
heavy: QVQLQQPGAELVKPGTSVKLSCKASGYTFTTYWMHWVNQRPGQGLEWIGEINPTNGHTNYNEKFKSKATLTVDKSSSTAYMQLSSLTSEDSAVYYCARNYVGSIFDYWGQGTTLTVSSAKTTPPSVYPLAPGSAAQTNSMVTLGCLVKGYFPEPVTVTWNSGSLSSGVHTFPAVLQSDLYTLSSSVTVPSSTWPSETVTCNVAHPASSTKVDKKIVPRDCGCKPCICTVPEVSSVFIFPPKPKDVLTITLTPKVTCVVVDISKDDPEVQFSWFVDDVEVHTAQTQPREEQFNSTFRSVSELPIMHQDWLNGKEFKCRVNSAAFPAPIEKTISKTKGRPKAPQVYTIPPPKEQMAKDKVSLTCMITDFFPEDITVEWQWNGQPAENYKNTQPIMDTDGSYFVYSKLNVQKSNWEAGNTFTCSVLHEGLHNHHTEKSLSHSPGK
light: NIVMTQSPKSMSMSVGERVTLSCKASENVVSYVSWYQQKPAQSPKLLIYGASNRNTGVPDRFTGSGSATDFTLTISSVRAEDLADYHCGQSYNYPYTFGGGTRLEIKRADAAPTVSIFPPSSEQLTSGGASVVCFLNNFYPKDINVKWKIDGSERQNGVLNSWTDQDSKDSTYSMSSTLTLTKDEYERHNSYTCEATHKTSTSPIVKSFNRNEC
notes: Murine IgG1 kappa from hybridoma; also called murine 2B8; mouse 2B8
Kd [1]: 0.0135 nM | koff [1]: 2.1e-05 s⁻¹ | kon [1]: 1.6e+06 M⁻¹ s⁻¹ | binding result [2]: binds | binding result [3]: binds | EC50, inhibition of HGF-stimulated c-Met phosphorylation in PC-3 cells, Average of Two Trials [4]: 0.287 nM | IC50, neutralization of HGF stimulated BrdU incorporation in 4 MBr-5 cells [5]: 1.41 nM
